Source: FireProtDB (doi:10.1002/pro.164)

B1: T45A, Q6T418 (parent)
chain: MERKTFSFLFLLLLVLASDVAVERGEARTCMIKKEGWGKCLIDTTCAHSCKNRGYIGGNCKGMTRTCYCLVNC

Variants of: B1
Details: Vigna radiata; pH 7; 37 °C; GdnHCl; Fluorescence; Tris-HCl 10 mM; NaCl 100 mM; structure 1TI5; whole UniProt chain shown

In order of rising “denaturant midpoint (higher = more stable)” value:
1. MERKTFSFLFLLLLVLASDVAVERGEARTCMIKKEGWGACLIDTTCAHSCKNRGYIGGNCKGMTRTCYCLVNC [K39A]  2.48 M
2. MERKTFSFLFLLLLVLASDVAVERGEARTCMIKAEGWGKCLIDTTCAHSCKNRGYIGGNCKGMTRTCYCLVNC [K34A]  2.53 M
3. MERKTFSFLFLLLLVLASDVAVERGEARTCMIAKEGWGKCLIDTTCAHSCKNRGYIGGNCKGMTRTCYCLVNC [K33A]  2.57 M
4. MERKTFSFLFLLLLVLASDVAVERGEARTCMIKKEGWGKCLIDTTCAHSCKNRGYIGGACKGMTRTCYCLVNC [N59A]  2.64 M
5. MERKTFSFLFLLLLVLASDVAVERGEARTAMIKKEGWGKCLIDTTCAHSCKNRGYIGGNCKGMTRTCYCLVNA [C30A C73A]  2.69 M
6. MERKTFSFLFLLLLVLASDVAVERGEARTCMIKKEGWGKCLIDTTCAHSCKNAGYIGGNCKGMTRTCYCLVNC [R53A]  2.76 M
7. MERKTFSFLFLLLLVLASDVAVERGEARTCMIKKEGWGKCLIDTTCAHSCANRGYIGGNCKGMTRTCYCLVNC [K51A]  2.81 M
8. MERKTFSFLFLLLLVLASDVAVERGEARTCMIKKEGWGKCLIDTTCAHACKNRGYIGGNCKGMTRTCYCLVNC [S49A]  2.84 M
9. MERKTFSFLFLLLLVLASDVAVERGEARTCMAKKEGWGKCLIDTTCAHSCKNRGYIGGNCKGMTRTCYCLVNC [I32A]  2.93 M
10. MERKTFSFLFLLLLVLASDVAVERGEARTCMIKKEGWGKCLIATTCAHSCKNRGYIGGNCKGMTRTCYCLVNC [D43A]  2.96 M
11. MERKTFSFLFLLLLVLASDVAVERGEARTCMIKKEGWGKCLIDTTCAHSCKNRGYIGGNCKGMTATCYCLVNC [R65A]  2.97 M
12. MERKTFSFLFLLLLVLASDVAVERGEARTCMIKKEGWGKCLIDTTCAHSCKNRGYIGGNCKGMARTCYCLVNC [T64A]  2.98 M
13. MERKTFSFLFLLLLVLASDVAVERGEARTCMIKKEGWGKCLIDTTCAHSCKNRGAIGGNCKGMTRTCYCLVNC [Y55A]  3.1 M
14. MERKTFSFLFLLLLVLASDVAVERGEARTCMIKKEGWGKCLIDTTCAHSCKNRGYIGGNCKGMTRTCYCLANC [V71A]  3.14 M
15. MERKTFSFLFLLLLVLASDVAVERGEARTCMIKKEGWGKCLIDTTCAHSCKNRGYIAGNCKGMTRTCYCLVNC [G57A]  3.26 M
16. MERKTFSFLFLLLLVLASDVAVERGEARTCMIKKEAWGKCLIDTTCAHSCKNRGYIGGNCKGMTRTCYCLVNC [G36A]  3.27 M
17. MERKTFSFLFLLLLVLASDVAVERGEAATCMIKKEGWGKCLIDTTCAHSCKNRGYIGGNCKGMTRTCYCLVNC [R28A]  3.29 M
18. MERKTFSFLFLLLLVLASDVAVERGEARTCMIKKEGWGKCLIDTTCAHSCKNRGYIGGNCAGMTRTCYCLVNC [K61A]  3.31 M
19. MERKTFSFLFLLLLVLASDVAVERGEARTCMIKKEGWGKCLIDTTCAHSCKNRGYIGGNCKGMTRACYCLVNC [T66A]  3.32 M
20. MERKTFSFLFLLLLVLASDVAVERGEARTCMIKKEGWGKCLIDATCAHSCKNRGYIGGNCKGMTRTCYCLVNC [T44A]  3.32 M
21. MERKTFSFLFLLLLVLASDVAVERGEARTCMIKKEGWGKCLIDTTCAHSCKNRGYAGGNCKGMTRTCYCLVNC [I56A]  3.32 M
22. MERKTFSFLFLLLLVLASDVAVERGEARTCMIKKEGWGKCLIDTTCAHSCKNRGYIGGNCKAMTRTCYCLVNC [G62A]  3.44 M
23. MERKTFSFLFLLLLVLASDVAVERGEARTCMIKKEGWGKCLIDTTCAHSCKARGYIGGNCKGMTRTCYCLVNC [N52A]  3.49 M
24. MERKTFSFLFLLLLVLASDVAVERGEARTCAIKKEGWGKCLIDTTCAHSCKNRGYIGGNCKGMTRTCYCLVNC [M31A]  3.66 M
25. MERKTFSFLFLLLLVLASDVAVERGEARTCMIKKEGWGKCLIDTTCAHSCKNRGYIGGNCKGMTRTCACLVNC [Y68A]  3.73 M
26. MERKTFSFLFLLLLVLASDVAVERGEARTCMIKKEGWGKCLADTTCAHSCKNRGYIGGNCKGMTRTCYCLVNC [I42A]  3.87 M
27. MERKTFSFLFLLLLVLASDVAVERGEARTCMIKKEGWGKCLIDTTCAHSCKNRGYIGGNCKGATRTCYCLVNC [M63A]  3.88 M
28. MERKTFSFLFLLLLVLASDVAVERGEARTCMIKKEGWGKCLIDTTCAASCKNRGYIGGNCKGMTRTCYCLVNC [H48A]  4.33 M
29. MERKTFSFLFLLLLVLASDVAVERGEARTCMIKKEGWGKCLIDTACAHSCKNRGYIGGNCKGMTRTCYCLVNC [T45A]  4.5 M
30. MERKTFSFLFLLLLVLASDVAVERGEARTCMIKKEGWAKCLIDTTCAHSCKNRGYIGGNCKGMTRTCYCLVNC [G38A]  4.66 M
31. MERKTFSFLFLLLLVLASDVAVERGEARTCMIKKEGWGKCLIDTTCAHSCKNRGYIGGNCKGMTRTCYCAVNC [L70A]  4.69 M
